Source: article PMC10786891, “Massively parallel profiling of RNA-targeting CRISPR-Cas13d”
Positions count from the first letter of the chain named. In names and notes the source's numbering stands.

T1: EsCas13d, nuclease-dead (Eubacterium siraeum, UniProt B0MS50, R295A;H300A;R849A;H854A)
T1 sequence: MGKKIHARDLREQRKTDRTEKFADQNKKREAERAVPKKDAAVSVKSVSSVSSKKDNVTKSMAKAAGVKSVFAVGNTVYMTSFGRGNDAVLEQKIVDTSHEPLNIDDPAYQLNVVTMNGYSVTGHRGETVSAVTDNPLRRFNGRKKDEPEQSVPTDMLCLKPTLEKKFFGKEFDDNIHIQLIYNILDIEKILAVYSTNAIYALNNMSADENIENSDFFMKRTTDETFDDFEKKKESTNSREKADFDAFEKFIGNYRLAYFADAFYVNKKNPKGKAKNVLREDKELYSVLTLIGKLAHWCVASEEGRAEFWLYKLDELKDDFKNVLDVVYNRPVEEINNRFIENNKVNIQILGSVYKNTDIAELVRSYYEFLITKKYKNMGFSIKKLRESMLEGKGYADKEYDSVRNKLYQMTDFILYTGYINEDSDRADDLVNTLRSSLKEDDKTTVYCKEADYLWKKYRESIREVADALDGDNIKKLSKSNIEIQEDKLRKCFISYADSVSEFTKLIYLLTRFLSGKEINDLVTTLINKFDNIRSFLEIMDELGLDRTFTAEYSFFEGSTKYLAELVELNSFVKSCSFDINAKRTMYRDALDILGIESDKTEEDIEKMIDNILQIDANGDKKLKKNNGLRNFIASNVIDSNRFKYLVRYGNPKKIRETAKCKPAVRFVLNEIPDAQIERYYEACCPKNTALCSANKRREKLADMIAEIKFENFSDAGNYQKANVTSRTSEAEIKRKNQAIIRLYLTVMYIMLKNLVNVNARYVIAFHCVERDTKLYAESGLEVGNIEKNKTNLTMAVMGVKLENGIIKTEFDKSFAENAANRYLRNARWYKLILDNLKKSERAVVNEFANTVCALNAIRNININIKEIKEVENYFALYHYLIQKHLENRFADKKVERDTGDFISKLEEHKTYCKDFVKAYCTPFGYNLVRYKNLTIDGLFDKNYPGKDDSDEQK

B1: target 1 C21U,C22U (mixed)
RNA 1: CACCCGUGCAAAAAUGCAGGGGUCUAAAACUGAGCGGAUAACCUCUCUAUGG
RNA 2: GGGAAUGGAUCCACAUCUACGAAUUCGUAUUAUAGAGAGGUUAUCCGCUCACCGAGAUCGGAAGAGCACACGU
B2: target 1 insC 3' of 9,insU 3' of 1 (mixed)
RNA 1: B1 RNA 1
RNA 2: GGGAAUGGAUCCACAUCUACGAAUUCGUACCAUAGAGAGGUUACUCCGCUCAUCCGAGAUCGGAAGAGCACACGU
B3: target 1 G5U,U8A (mixed)
RNA 1: B1 RNA 1
RNA 2: B1 RNA 2 with U30C, U31C, U44A, G47U
B4: target 1 C2U,U3A (mixed)
RNA 1: B1 RNA 1
RNA 2: B1 RNA 2 with U30C, U31C, U49A, C50U
B5: target 2 MT 5'PFS AUC 3'PFS ACU (mixed)
RNA 1: CACCCGUGCAAAAUUGCAGGGGUCUAAAACCUUCUCCAAAUUGUUUCAUCCU
RNA 2: GGGAAUGGAUCCACAUCUACGAAUUCAUCAGGAUGAAACAAUUUGGAGAAGACUAGAUCGGAAGAGCACACGU
B6: target 2 MT 5'PFS UGA 3'PFS CUU (mixed)
RNA 1: B5 RNA 1
RNA 2: B5 RNA 2 with A27U, U28G, C29A, A52C, C53U
B7: target 2 MT 5'PFS CUA 3'PFS ACC (mixed)
RNA 1: B5 RNA 1
RNA 2: B5 RNA 2 with A27C, C29A, U54C
B8: target 2 MT 5'PFS UAU 3'PFS AAC (mixed)
RNA 1: B5 RNA 1
RNA 2: B5 RNA 2 with A27U, U28A, C29U, C53A, U54C
B9: target 2 MT 5'PFS UUC 3'PFS CUC (mixed)
RNA 1: B5 RNA 1
RNA 2: B5 RNA 2 with A27U, A52C, C53U, U54C
B10: target 2 MT 5'PFS CGA 3'PFS CAA (mixed)
RNA 1: B5 RNA 1
RNA 2: B5 RNA 2 with A27C, U28G, C29A, A52C, C53A, U54A
B11: target 2 MT 5'PFS AUU 3'PFS AAC (mixed)
RNA 1: B5 RNA 1
RNA 2: B5 RNA 2 with C29U, C53A, U54C
B12: target 2 MT 5'PFS GCA 3'PFS AGA (mixed)
RNA 1: B5 RNA 1
RNA 2: B5 RNA 2 with A27G, U28C, C29A, C53G, U54A
B13: target 2 MT 5'PFS UAU 3'PFS AAA (mixed)
RNA 1: B5 RNA 1
RNA 2: B5 RNA 2 with A27U, U28A, C29U, C53A, U54A
B14: target 2 MT 5'PFS CAU 3'PFS AAG (mixed)
RNA 1: B5 RNA 1
RNA 2: B5 RNA 2 with A27C, U28A, C29U, C53A, U54G
B15: target 2 MT 5'PFS GAC 3'PFS UGC (mixed)
RNA 1: B5 RNA 1
RNA 2: B5 RNA 2 with A27G, U28A, A52U, C53G, U54C
B16: target 2 MT 5'PFS AUC 3'PFS ACA (mixed)
RNA 1: B5 RNA 1
RNA 2: B5 RNA 2 with U54A
B17: target 2 MT 5'PFS GGU 3'PFS UAA (mixed)
RNA 1: B5 RNA 1
RNA 2: B5 RNA 2 with A27G, U28G, C29U, A52U, C53A, U54A
B18: target 2 MT 5'PFS UGG 3'PFS UCU (mixed)
RNA 1: B5 RNA 1
RNA 2: B5 RNA 2 with A27U, U28G, C29G, A52U
B19: target 2 MT 5'PFS UUG 3'PFS UCA (mixed)
RNA 1: B5 RNA 1
RNA 2: B5 RNA 2 with A27U, C29G, A52U, U54A
B20: target 2 MT 5'PFS CGA 3'PFS CAC (mixed)
RNA 1: B5 RNA 1
RNA 2: B5 RNA 2 with A27C, U28G, C29A, A52C, C53A, U54C
B21: target 2 MT 5'PFS CGG 3'PFS UUU (mixed)
RNA 1: B5 RNA 1
RNA 2: B5 RNA 2 with A27C, U28G, C29G, A52U, C53U
B22: target 2 MT 5'PFS CAU 3'PFS AAA (mixed)
RNA 1: B5 RNA 1
RNA 2: B5 RNA 2 with A27C, U28A, C29U, C53A, U54A
B23: target 2 MT 5'PFS UGG 3'PFS UCA (mixed)
RNA 1: B5 RNA 1
RNA 2: B5 RNA 2 with A27U, U28G, C29G, A52U, U54A
B24: target 2 MT 5'PFS CAU 3'PFS AAC (mixed)
RNA 1: B5 RNA 1
RNA 2: B5 RNA 2 with A27C, U28A, C29U, C53A, U54C
B25: target 2 MT 5'PFS CAU 3'PFS AAU (mixed)
RNA 1: B5 RNA 1
RNA 2: B5 RNA 2 with A27C, U28A, C29U, C53A
B26: target 2 MT 5'PFS AUG 3'PFS UAC (mixed)
RNA 1: B5 RNA 1
RNA 2: B5 RNA 2 with C29G, A52U, C53A, U54C
B27: target 2 MT 5'PFS AGG 3'PFS AGG (mixed)
RNA 1: B5 RNA 1
RNA 2: B5 RNA 2 with U28G, C29G, C53G, U54G
B28: target 2 MT 5'PFS GCA 3'PFS AGC (mixed)
RNA 1: B5 RNA 1
RNA 2: B5 RNA 2 with A27G, U28C, C29A, C53G, U54C
B29: target 2 MT 5'PFS AUG 3'PFS UAU (mixed)
RNA 1: B5 RNA 1
RNA 2: B5 RNA 2 with C29G, A52U, C53A
B30: target 2 MT 5'PFS GUA 3'PFS CCG (mixed)
RNA 1: B5 RNA 1
RNA 2: B5 RNA 2 with A27G, C29A, A52C, U54G
B31: target 2 MT 5'PFS CUG 3'PFS UAA (mixed)
RNA 1: B5 RNA 1
RNA 2: B5 RNA 2 with A27C, C29G, A52U, C53A, U54A
B32: target 2 MT 5'PFS GAC 3'PFS UGA (mixed)
RNA 1: B5 RNA 1
RNA 2: B5 RNA 2 with A27G, U28A, A52U, C53G, U54A
B33: target 2 MT 5'PFS AUG 3'PFS UAA (mixed)
RNA 1: B5 RNA 1
RNA 2: B5 RNA 2 with C29G, A52U, C53A, U54A
B34: target 2 MT 5'PFS CAU 3'PFS CAU (mixed)
RNA 1: B5 RNA 1
RNA 2: B5 RNA 2 with A27C, U28A, C29U, A52C, C53A
B35: target 2 MT 5'PFS GAC 3'PFS UGU (mixed)
RNA 1: B5 RNA 1
RNA 2: B5 RNA 2 with A27G, U28A, A52U, C53G
B36: target 2 MT 5'PFS UAU 3'PFS AAG (mixed)
RNA 1: B5 RNA 1
RNA 2: B5 RNA 2 with A27U, U28A, C29U, C53A, U54G
B37: target 2 MT 5'PFS AGG 3'PFS CUU (mixed)
RNA 1: B5 RNA 1
RNA 2: B5 RNA 2 with U28G, C29G, A52C, C53U

Biological target: T1, EsCas13d, nuclease-dead
Experiment: crRNA (strand 1, pre-loaded); Mg2+; 40 mM Tris-HCl pH 7.5, 150 mM NaCl, 6 mM MgCl2, 1 mM DTT, 0.1% Tween-20, 0.2 mg/ml BSA; 25 C; 10 min per concentration, then washed
Settings: tags: His6-TwinStrep-SUMO cleaved; N-terminal SNAP kept (SNAP-Surface 488); label: 3' end held by stalled T7 RNA polymerase

Compared with B1, B2 is 2-fold lower in Kd: 29 ± 4 nM for the first, 14.6 ± 0.7 nM for the second. The second binds more tightly here.

Compared with B3, B4 is 4.3-fold lower in Kd: roughly 70 nM for the first, 16.1 ± 1.9 nM for the second. The second binds more tightly here.

First: B5
Second: B6
The Kd of the first is 2.9-fold higher: roughly 41 nM for the first, 14.1 ± 3 nM for the second.

First: B7
Second: B8
The Kd of the first is 13-fold lower: 1.8 ± 0.4 nM for the first, 24 ± 2.8 nM for the second.

Compared with B9, B10 is 4.9-fold lower in Kd: roughly 32 nM for the first, 6.5 ± 2 nM for the second.

B11 and B12 are within error of each other in Kd: 7.3 ± 0.9 nM for the first, 8.2 ± 1.7 nM for the second.

Going from B13 to B14, the Kd falls from 18 ± 3.5 nM to 4.9 ± 0.7 nM (3.7-fold). The second binds more tightly here.

Compared with B15, B16 is 4.9-fold higher in Kd: 14.4 ± 2.7 nM for the first, roughly 70 nM for the second. The first binds more tightly here.

Going from B17 to B18, the Kd rises from 9.8 ± 1.1 nM to 41 ± 11 nM (4.2-fold). The first binds more tightly here.

First: B19
Second: B20
The Kd of the first is 7.8-fold higher: roughly 70 nM for the first, 9 ± 4 nM for the second.

Going from B21 to B22, the Kd falls from 15 ± 2.7 nM to 4.2 ± 0.7 nM (3.6-fold). The second binds more tightly here.

Compared with B23, B24 is 2-fold lower in Kd: 8.5 ± 0.9 nM for the first, 4.2 ± 0.6 nM for the second.

Compared with B25, B26 is 2.9-fold higher in Kd: 4.4 ± 0.7 nM for the first, 12.6 ± 2.3 nM for the second. The first binds more tightly here.

B27 and B28 are within 1.5-fold of each other in Kd: 5.2 ± 0.6 nM for the first, 7.5 ± 1.6 nM for the second.

Going from B29 to B30, the Kd falls from 15 ± 4 nM to 9.6 ± 0.6 nM (1.6-fold).

First: B31
Second: B32
The Kd of the first is 4.7-fold lower: 2.77 ± 0.2 nM for the first, 12.9 ± 2 nM for the second.

Going from B33 to B34, the Kd falls from 7.9 ± 1.3 nM to 4.9 ± 0.9 nM (1.6-fold).

B35 and B36 are within error of each other in Kd: 23 ± 4 nM for the first, 20.9 ± 2.2 nM for the second.

With B37 the Kd was 7.3 ± 0.9 nM.
